This note sets out measurements from patent US8883973B2.

The target of the experiment is human FcRn (complex of His-tagged FcRn alpha chain with beta 2 microglobulin) (human) (UniProt P55899). In words: SPR (Biacore), human FcRn on chip, pH 6.0.

Consider 257L IgG1 anti-VEGF antibody, for which the fold FcRn binding (fold of Ka* relative to WT IgG1) came to 3.4 fold. Still for that read-out and setting: the result for 257N IgG1 anti-VEGF antibody reads 3.5 fold. The substance 428L/434S IgG1 anti-VEGF antibody showed a fold FcRn binding (fold of Ka* relative to WT) of 17.3 fold. Substance 434S IgG1 anti-VEGF antibody displayed a fold FcRn binding (fold of Ka* relative to WT) of 3.8 fold.
